In PMC3315801:

Target: T1, CPY*-CPY fusion protein (S. cerevisiae) (UniProt P00729)
T1 sequence (P00729 whole entry, looked up): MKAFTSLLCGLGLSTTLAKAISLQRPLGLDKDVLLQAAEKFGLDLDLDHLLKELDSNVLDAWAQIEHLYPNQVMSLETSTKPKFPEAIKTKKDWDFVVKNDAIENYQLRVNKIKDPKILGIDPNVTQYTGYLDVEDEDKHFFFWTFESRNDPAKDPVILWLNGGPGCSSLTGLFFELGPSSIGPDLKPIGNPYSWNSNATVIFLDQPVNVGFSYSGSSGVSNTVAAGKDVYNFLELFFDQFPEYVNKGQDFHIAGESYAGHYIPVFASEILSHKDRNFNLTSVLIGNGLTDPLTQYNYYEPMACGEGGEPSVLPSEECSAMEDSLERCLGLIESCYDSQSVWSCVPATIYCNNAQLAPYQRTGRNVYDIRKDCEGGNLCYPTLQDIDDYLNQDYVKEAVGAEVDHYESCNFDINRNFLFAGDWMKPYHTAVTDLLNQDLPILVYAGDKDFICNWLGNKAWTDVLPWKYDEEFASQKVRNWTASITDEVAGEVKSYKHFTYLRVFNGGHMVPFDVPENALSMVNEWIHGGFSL
Experiment: co-IP

- inhibition of the co-precipitation in yos9Δ cells against wild-type cells: 70%
B1: Hrd1p (enzyme)
chain: MVPENRRKQLAIFVVVTYLLTFYCVYSATKTSVSFLQVTLKLNEGFNLMVLSIFILLNSTLLWQLLTKLLFGELRLIEHEHIFERLPFTIINTLFMSSLFHERYFFTVAFFGLLLLYLKVFHWILKDRLEALLQSINDSTTMKTLIFSRFSFNLVLLAVVDYQIITRCISSIYTNQKSDIESTSLYLIQVMEFTMLLIDLLNLFLQTCLNFWEFYRSQQSLSNENNHIVHGDPTDENTVESDQSQPVLNDDDDDDDDDRQFTGLEGKFMYEKAIDVFTRFLKTALHLSMLIPFRMPMMLLKDVVWDILALYQSGTSLWKIWRNNKQLDDTLVTVTVEQLQNSANDDNICIICMDELIHSPNQQTWKNKNKKPKRLPCGHILHLSCLKNWMERSQTCPICRLPVFDEKGNVVQTTFTSNSDITTQTTVTDSTGIATDQQGFANEVDLLPTRTTSPDIRIVPTQNIDTLAMRTRSTSTPSPTWYTFPLHKTGDNSVGSSRSAYEFLITNSDEKENGIPVKLTIENHEVNSLHGDGGEQIAKKIVIPDKFIQHI
